{"source": "the RNAGym collection of RNA variant scans (doi:10.7554/elife.90254)", "parents": {"B1": {"name": "LINE1-mini (parent)", "chain": "GGCAGAGCUCAACACAGCGUGGCAAAGUGGCUGUGGCUAGACUGCC"}}, "data": [{"variants_of": "B1", "test": "self-cleavage, relative activity (ratio to wild type); higher = more cleavage; in vitro, sequencing; the parent is a self-cleaving ribozyme", "values": [{"variant": "GGCAGAGCUCAACACAGCGUGGCUAAGUGGCUGUGGCUAAACUGCC", "self-cleavage": 0.14}, {"variant": "GGCAGAGCUCAACACAGCGUGGCUAAGUGGCUGUGGCUAUACUGCC", "self-cleavage": 0.19}, {"variant": "GGCAGAGCUCAACACAGCGUGGCUAAGUGGCUGUGGCUACACUGCC", "self-cleavage": 0.11}, {"variant": "GGCAGAGCUCAACACAGCGUGGCAGCGUGGCUGUGGCUAGACUGCC", "self-cleavage": 0.49}, {"variant": "GGCAGAGCUCAACACAGCGUGGCAGUGUGGCUGUGGCUAGACUGCC", "self-cleavage": 0.1}, {"variant": "GGCAGAGCUCAACACAGCGUGGCAGGGUGGCUGUGGCUAGACUGCC", "self-cleavage": 0.34}, {"variant": "GGCAGAGCUCAACACAGCGUGGCACAGUGGCUGUGGGUAGACUGCC", "self-cleavage": 0.06}, {"variant": "GGCAGAGCUCAACACAGCGUGGCACAGUGGCUGUGGUUAGACUGCC", "self-cleavage": 0.06}, {"variant": "GGCAGAGCUCAACACAGCGUGGCACAGUGGCUGUGGAUAGACUGCC", "self-cleavage": 0.11}, {"variant": "GGCAGAGCUCAACACAGCGUGGCUAAGUGGCUGUGGCCAGACUGCC", "self-cleavage": 1.36}, {"variant": "GGCAGAGCUCAACACAGCGUGGCUAAGUGGCUGUGGCAAGACUGCC", "self-cleavage": 0.34}, {"variant": "GGCAGAGCUCAACACAGCGUGGCUAAGUGGCUGUGGCGAGACUGCC", "self-cleavage": 0.02}, {"variant": "GGCAGAGCUCAACACAGCGUGGCACAGUGGCUGGGGCUAGACUGCC", "self-cleavage": 0.06}, {"variant": "GGCAGAGCUCAACACAGCGUGGCACAGUGGCUGCGGCUAGACUGCC", "self-cleavage": 0.08}, {"variant": "GGCAGAGCUCAACACAGCGUGGCACAGUGGCUGAGGCUAGACUGCC", "self-cleavage": 0.12}, {"variant": "GGCAGAGCUCAACACAGCGUGGCUAAGUGGCUGUGGCUAGACUGCA", "self-cleavage": 2.01}, {"variant": "GGCAGAGCUCAACACAGCGUGGCUAAGUGGCUGUGGCUAGACUGCU", "self-cleavage": 1.09}, {"variant": "GGCAGAGCUCAACACAGCGUGGCUAAGUGGCUGUGGCUAGACUGCG", "self-cleavage": 1.03}, {"variant": "GGCAGAGCUCAACACAGCGUGGCACAGUGUCUGUGGCUAGACUGCC", "self-cleavage": 1.11}, {"variant": "GGCAGAGCUCAACACAGCGUGGCACAGUGCCUGUGGCUAGACUGCC", "self-cleavage": 1.64}, {"variant": "GGCAGAGCUCAACACAGCGUGGCACAGUGACUGUGGCUAGACUGCC", "self-cleavage": 0.44}, {"variant": "GGCAGAGCUCAACACAGCGUGGCACAGUGGCUGUGGCUACACUGCC", "self-cleavage": 0.06}, {"variant": "GGCAGAGCUCAACACAGCGUGGCACAGUGGCUGUGGCUAUACUGCC", "self-cleavage": 0.08}, {"variant": "GGCAGAGCUCAACACAGCGUGGCACAGUGGCUGUGGCUAAACUGCC", "self-cleavage": 0.1}, {"variant": "GGCAGAGCUCAACACAGCGUGGCACAGUGGCUUUGGCUAGACUGCC", "self-cleavage": 0.15}, {"variant": "GGCAGAGCUCAACACAGCGUGGCACAGUGGCUAUGGCUAGACUGCC", "self-cleavage": 0.05}, {"variant": "GGCAGAGCUCAACACAGCGUGGCACAGUGGCUCUGGCUAGACUGCC", "self-cleavage": 0.04}, {"variant": "GGCAGAGCUCAACACAGCGUGGCUAAGUGGCUGUGGCUAGACAGCC", "self-cleavage": 0.3}, {"variant": "GGCAGAGCUCAACACAGCGUGGCUAAGUGGCUGUGGCUAGACCGCC", "self-cleavage": 0.18}, {"variant": "GGCAGAGCUCAACACAGCGUGGCUAAGUGGCUGUGGCUAGACGGCC", "self-cleavage": 0.03}, {"variant": "GGCAGAGCUCAACACAGCGUGGCUAAGUCGCUGUGGCUAGACUGCC", "self-cleavage": 0.58}, {"variant": "GGCAGAGCUCAACACAGCGUGGCUAAGUAGCUGUGGCUAGACUGCC", "self-cleavage": 1.72}, {"variant": "GGCAGAGCUCAACACAGCGUGGCUAAGUUGCUGUGGCUAGACUGCC", "self-cleavage": 1.84}, {"variant": "GGCAGAGCUCAACACAGCGUGGCUAAGUGGCUGUGUCUAGACUGCC", "self-cleavage": 0.05}, {"variant": "GGCAGAGCUCAACACAGCGUGGCUAAGUGGCUGUGCCUAGACUGCC", "self-cleavage": 0.11}, {"variant": "GGCAGAGCUCAACACAGCGUGGCUAAGUGGCUGUGACUAGACUGCC", "self-cleavage": 0.22}, {"variant": "GGCAGAGCUCAACACAGCGUGGCACAGUGGCUGUGGCGAGACUGCC", "self-cleavage": 0.02}, {"variant": "GGCAGAGCUCAACACAGCGUGGCACAGUGGCUGUGGCCAGACUGCC", "self-cleavage": 0.46}, {"variant": "GGCAGAGCUCAACACAGCGUGGCACAGUGGCUGUGGCAAGACUGCC", "self-cleavage": 0.22}, {"variant": "GGCAGAGCUCAACACAGCGUGGCUAAGUGUCUGUGGCUAGACUGCC", "self-cleavage": 1.46}, {"variant": "GGCAGAGCUCAACACAGCGUGGCUAAGUGCCUGUGGCUAGACUGCC", "self-cleavage": 0.62}, {"variant": "GGCAGAGCUCAACACAGCGUGGCUAAGUGACUGUGGCUAGACUGCC", "self-cleavage": 0.97}, {"variant": "GGCAGAGCUCAACACAGCGUGGCACAUUGGCUGUGGCUAGACUGCC", "self-cleavage": 0.46}, {"variant": "GGCAGAGCUCAACACAGCGUGGCACAAUGGCUGUGGCUAGACUGCC", "self-cleavage": 0.55}, {"variant": "GGCAGAGCUCAACACAGCGUGGCACACUGGCUGUGGCUAGACUGCC", "self-cleavage": 0.39}, {"variant": "GGCAGAGCUCAACACAGCGUGGCACAGUGGCUGUGGCUAGACUGCU", "self-cleavage": 0.56}, {"variant": "GGCAGAGCUCAACACAGCGUGGCACAGUGGCUGUGGCUAGACUGCA", "self-cleavage": 0.36}, {"variant": "GGCAGAGCUCAACACAGCGUGGCACAGUGGCUGUGGCUAGACUGCG", "self-cleavage": 0.75}, {"variant": "GGCAGAGCUCAACACAGCGUGGCACAGUCGCUGUGGCUAGACUGCC", "self-cleavage": 0.56}, {"variant": "GGCAGAGCUCAACACAGCGUGGCACAGUUGCUGUGGCUAGACUGCC", "self-cleavage": 1.19}, {"variant": "GGCAGAGCUCAACACAGCGUGGCACAGUAGCUGUGGCUAGACUGCC", "self-cleavage": 0.75}, {"variant": "GGCAGAGCUCAACACAGCGUGGCACAGUGGAUGUGGCUAGACUGCC", "self-cleavage": 0.09}, {"variant": "GGCAGAGCUCAACACAGCGUGGCACAGUGGGUGUGGCUAGACUGCC", "self-cleavage": 0.06}, {"variant": "GGCAGAGCUCAACACAGCGUGGCACAGUGGUUGUGGCUAGACUGCC", "self-cleavage": 0.12}, {"variant": "GGCAGAGCUCAACACAGCGUGGCACAGUGGCUGUGGCUAGACCGCC", "self-cleavage": 0.04}, {"variant": "GGCAGAGCUCAACACAGCGUGGCACAGUGGCUGUGGCUAGACAGCC", "self-cleavage": 0.09}]}]}
